The experiment addresses T1, biotinylated soluble human IL-1RI ectodomain (human, UniProt P14778 18-336, biotinylated with EZ-Link Sulfo-NHS-SS-Biotin, approaching 2 mol biotin/mol receptor).
T1 construct: extracellular domain; also called biotinylated IL-1RI; biotinylated human IL-1RI
T1 sequence (looked up): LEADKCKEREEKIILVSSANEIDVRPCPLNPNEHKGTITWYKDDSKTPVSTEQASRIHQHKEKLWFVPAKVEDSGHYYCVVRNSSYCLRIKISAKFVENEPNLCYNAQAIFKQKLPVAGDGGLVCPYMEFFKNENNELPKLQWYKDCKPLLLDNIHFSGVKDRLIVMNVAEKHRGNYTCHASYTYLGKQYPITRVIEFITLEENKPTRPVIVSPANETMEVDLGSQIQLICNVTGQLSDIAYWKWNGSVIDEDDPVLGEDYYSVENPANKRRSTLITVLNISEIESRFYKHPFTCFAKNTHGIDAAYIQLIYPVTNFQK
Nature of the experiment: SPR, IL-1α binding to biotinylated receptor.

B1: human IL-1α (ligand, UniProt P01583 113-271, looked up)
chain: SAPFSFLSNVKYNFMRIIKYEFILNDALNQSIIRANDQYLTAAALHNLDEAVKFDMGAYKSSKDDAKITVILRISKTQLYVTAQDEDQPVLLKEMPEIPKTITGSETNLLFFWETHGTKNYFTSVAHPNLFIATKQDYWVCLAGGPPSITDFQILENQA
Turning to B1, the affinity, expressed as Kd, was 1 nM.

For the origin of these results see patent US20050282181A1 (published 2005).
